This is an account of results in US20200055930A1 (Pfizer, published 2020).

Residue numbers refer to the chain shown, from its start. Values joined by “and” are separate entries in the source; they are usually repeats but may differ in a detail not shown here. Equal entries are not always repeated.

Test [1] has as its target Mouse Fc-mouse GDF15 (Mu IgG1Fc_Fxa_Mu GDF15) (mouse (GDF15 part)). Kind of test: SPR BIAcore T200 37C; Fc-GDF15 captured, monomeric Fc-Fab analyte.
Test [2] shares this target. Kind of test: SPR BIAcore T200 37C; Fc-GDF15 captured, monomeric Fc-Fab analyte; average.
Test [3] has as its target T1, Mouse Fc-human GDF15 (Mu IgG1Fc_Fxa_Hu GDF15) (human (GDF15 part)).
T1 construct: Whole fusion entry; also called Murine dimeric IgG1 Fc-human GDF-15 with FXa cleavage site; control human GDF15
T1 chain: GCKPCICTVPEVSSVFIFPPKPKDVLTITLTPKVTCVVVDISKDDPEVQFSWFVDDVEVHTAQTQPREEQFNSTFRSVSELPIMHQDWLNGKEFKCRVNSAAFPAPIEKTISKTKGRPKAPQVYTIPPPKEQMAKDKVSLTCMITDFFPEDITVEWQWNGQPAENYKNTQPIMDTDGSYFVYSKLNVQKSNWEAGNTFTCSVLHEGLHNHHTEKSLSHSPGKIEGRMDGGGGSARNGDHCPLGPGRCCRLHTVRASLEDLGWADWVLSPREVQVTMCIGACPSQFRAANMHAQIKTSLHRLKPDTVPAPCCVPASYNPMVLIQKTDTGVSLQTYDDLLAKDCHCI
Kind of test: SPR BIAcore T200 37C; Fc-GDF15 captured, monomeric Fc-Fab analyte. The text has this: (§1) To understand the KD value, without the avidity effect, of GDF15_001 binding to GDF15, monomeric Fc-Fab was produced and tested in the same assay used in Example 2. […] Mu IgG1Fc_Fxa_Hu GDF15, Mu IgG1Fc_Fxa_Mu GDF15 and Mu IgG1Fc_Fxa_Cyno GDF15 were captured onto three different flow cells of a CM4 sensorchip (catalogue number BR100534, GE Healthcare) surface using the Mouse Antibody Capture Kit (BR100838, GE Healthcare) according to the manufacturer's protocol. The running and sample buffer was 10 mM HEPES pH 7.4, 0.15M NaCl, 3 mM EDTA, 0.05% P-20 (HBS-EP+). The final capture levels of Mu IgG1Fc_Fxa_Hu GDF15, Mu IgG1Fc_Fxa_Mu GDF15 and Mu IgG1Fc_Fxa_Cyno GDF15 were 19 resonance units (RU), 22 RU and 19 RU respectively. Flow cell 1 was used as a reference flow cell. […] The dissociation was monitored for 1200 seconds and the surface was regenerated with 10 mM Glycine pH 1.7. Binding affinities and rate constants were determined by fitting the resulting sensorgram data to a 1:1 Langmuir model in BIAcore T200 Evaluation software version 2.0 (GE Healthcare).

Test [4] has as its target T2, Mouse Fc-cynomolgus monkey GDF15 (Mu IgG1Fc_Fxa_Cyno GDF15) (cynomolgus monkey (GDF15 part)).
T2 construct: Whole fusion entry; also called Murine dimeric IgG1 Fc-cyno GDF-15 with FXa cleavage site
T2 chain: T1 chain with H239R, R254H, A287E, T296M, S297N, I345V
The test is described as above.
Text: as §1

Test [5] has as its target Mouse Fc-mouse GDF15 (Mu IgG1Fc_Fxa_Mu GDF15) (mouse (GDF15 part)). As to the kind of experiment: SPR BIAcore T200 37C; Fc-GDF15 captured, monomeric Fc-Fab analyte; murine GDF15 ligand (Mu IgG1Fc_Fxa_Mu GDF15), first run.
The target is the same in test [6]. As to the kind of experiment: SPR BIAcore T200 37C; Fc-GDF15 captured, monomeric Fc-Fab analyte; murine GDF15 ligand (Mu IgG1Fc_Fxa_Mu GDF15), second run.
For test [7], the target named is T1, Mouse Fc-human GDF15 (Mu IgG1Fc_Fxa_Hu …). As to the kind of experiment: SPR BIAcore T200 37C; Fc-GDF15 captured, IgG analyte. The procedure: Mouse Fc-human GDF15 (Mu IgG1Fc_Fxa_Hu GDF15; SEQ ID NO:2), Mouse Fc-mouse GDF15 (Mu IgG1Fc_Fxa_Mu GDF15; SEQ ID NO:5) and Mouse Fc-cynomolgus monkey GDF15 (Mu IgG1Fc_Fxa_Cyno GDF15; SEQ ID NO:4) were captured onto three different flow cells of a CM4 sensorchip (catalogue number BR100534, GE Healthcare) surface using the Mouse Antibody Capture Kit (BR100838, GE Healthcare) according to the manufacturer's protocol. The running and sample buffer was 10 mM HEPES pH 7.4, 0.15M NaCl, 3 mM EDTA, 0.05% P-20 (HBS-EP+). The final capture levels of Mu IgG1Fc_Fxa_Hu GDF15, Mu IgG1Fc_Fxa_Mu GDF15 and Mu IgG1Fc_Fxa_Cyno GDF15 were 40 resonance units (RU), 32 RU and 25 RU respectively. Flow cell 1 was used as a reference flow cell. […] The dissociation was monitored for 2.8 hours and the surface was regenerated with 10 mM Glycine pH 1.7. Binding affinities and rate constants were determined for murine and cynomolgus monkey GDF15 by fitting the resulting sensorgram data to a 1:1 Langmuir model in BIAcore T200 Evaluation software version 2.0 (GE Healthcare). […]

In test [8] the target is T2, Mouse Fc-cynomolgus monkey GDF15 (Mu …). The description is as above. The procedure:
(§2) Mouse Fc-human GDF15 (Mu IgG1Fc_Fxa_Hu GDF15; SEQ ID NO:2), Mouse Fc-mouse GDF15 (Mu IgG1Fc_Fxa_Mu GDF15; SEQ ID NO:5) and Mouse Fc-cynomolgus monkey GDF15 (Mu IgG1Fc_Fxa_Cyno GDF15; SEQ ID NO:4) were captured onto three different flow cells of a CM4 sensorchip (catalogue number BR100534, GE Healthcare) surface using the Mouse Antibody Capture Kit (BR100838, GE Healthcare) according to the manufacturer's protocol. The running and sample buffer was 10 mM HEPES pH 7.4, 0.15M NaCl, 3 mM EDTA, 0.05% P-20 (HBS-EP+). The final capture levels of Mu IgG1Fc_Fxa_Hu GDF15, Mu IgG1Fc_Fxa_Mu GDF15 and Mu IgG1Fc_Fxa_Cyno GDF15 were 40 resonance units (RU), 32 RU and 25 RU respectively. Flow cell 1 was used as a reference flow cell. […] The dissociation was monitored for 2.8 hours and the surface was regenerated with 10 mM Glycine pH 1.7. Binding affinities and rate constants were determined for murine and cynomolgus monkey GDF15 by fitting the resulting sensorgram data to a 1:1 Langmuir model in BIAcore T200 Evaluation software version 2.0 (GE Healthcare).
(§3) Additionally, the binding of clone GDF15_001 to cynomolgus monkey and mouse GDF15 was measured using above mentioned BIAcore assay (Table 7).

For test [9], the target named is T1, Mouse Fc-human GDF15 (Mu IgG1Fc_Fxa_Hu …). As to the kind of experiment: SPR BIAcore T200 37C; Fc-GDF15 captured, IgG analyte; same run as printed in Table 6 (the 8th table r7). The procedure:
as §2, §3

Test [10] shares this target. Kind of test: SPR BIAcore T200 37C; Fc-GDF15 captured, IgG analyte; same run as printed in Table 6 (the 8th table r8). The procedure: as §2, §3
The target is the same in test [11]. As to the kind of experiment: SPR BIAcore T200 37C; Fc-GDF15 captured, IgG analyte; same run as printed in Table 6 (the 8th table r9). The procedure:
as §2, §3

B1: monomeric GDF15_001 (Fab, V domains shown)
VH: QVQLVQSGAEVKKPGSSVKVSCKASGYTFSSYNIDWVRQAPGQGLEWMGGINPIFGTAFYNQKFQGRVTITADESTSTAYMELSSLRSEDTAVYYCAREAITTVGAMDHWGQGTLVTVSS
VL: EIVLTQSPATLSLSPGERATLSCRTSQSVHNYLAWYQQKPGQAPRLLIYDASTRADGIPARFSGSGSGTDFTLTISSLEPEDFAVYYCQQFWSWPWTFGQGTKVEIK
notes: only the variable domains of GDF15_001 are tied to it; also called CH23LS-GDF15_001; CH23LS-GBT-GDF15_001
Turning to B1, the T½ was 3.39 min and 3.73 min in [1]; 8.54 h and 4.2 h in test [3]; 2.57 h and 2.05 h in test [4]. Also, the koff is 0.00341 s⁻¹ and 0.0031 s⁻¹ in test [1]; 0.00326 s⁻¹ in test [2]. Also, the on-rate (kon) in test [1] was 1.62e+06 M⁻¹ s⁻¹ and 1.7e+06 M⁻¹ s⁻¹; in test [2], 1.66e+06 M⁻¹ s⁻¹. Also, the figures for the equilibrium dissociation constant (Kd) in test [2], in test [5] and in test [6] were 1.97 nM, 2.11 nM and 1.82 nM, respectively.

B2: GDF15_001 (antibody, human IgG1, kappa, V domains shown)
VH: B1 VH
VL: EIVLTQSPATLSLSPGERATLSCRTSQSVHNYLAWYQQKPGQAPRLLIYDASTRADGIPARFSGSGSGTDFTLTISSLEPEDFAVYYCQQFWSWPWTFGQGTKVEIKR
notes: Bivalent IgG1/kappa; also called clone GDF15_001; anti-GDF15_001
In the case of B2, the T½ in test [7] is 40.3 h and 20.9 h and 30.8 h; in test [8], 14.8 h and 15.5 h and 18.7 h; in [9] it was 20.9 h; in [10] it was 30.8 h; in [11] it was 40.3 h.
